Source: US20150368311A1 (Sanofi, published 2015)
Non-standard residues stand in square brackets, D forms with d. No end group written: not given here. Ala(4-thiazolyl) = N[C@@H](Cc1cscn1)C(=O)O; 1Nal = N[C@@H](Cc1cccc2ccccc12)C(=O)O; Phe(2-F) = N[C@@H](Cc1ccccc1F)C(=O)O; Chg = N[C@H](C(=O)O)C1CCCCC1; Nle = CCCC[C@H](N)C(=O)O

Legend:
human GLP-1 receptor = human GLP-1 receptor (human, UniProt P43220 24-463); assay: cell-based or functional assay
human glucagon receptor = human glucagon receptor (human, UniProt P47871 26-477); assay: cell-based or functional assay
Sequence of human glucagon receptor (P47871 26-477): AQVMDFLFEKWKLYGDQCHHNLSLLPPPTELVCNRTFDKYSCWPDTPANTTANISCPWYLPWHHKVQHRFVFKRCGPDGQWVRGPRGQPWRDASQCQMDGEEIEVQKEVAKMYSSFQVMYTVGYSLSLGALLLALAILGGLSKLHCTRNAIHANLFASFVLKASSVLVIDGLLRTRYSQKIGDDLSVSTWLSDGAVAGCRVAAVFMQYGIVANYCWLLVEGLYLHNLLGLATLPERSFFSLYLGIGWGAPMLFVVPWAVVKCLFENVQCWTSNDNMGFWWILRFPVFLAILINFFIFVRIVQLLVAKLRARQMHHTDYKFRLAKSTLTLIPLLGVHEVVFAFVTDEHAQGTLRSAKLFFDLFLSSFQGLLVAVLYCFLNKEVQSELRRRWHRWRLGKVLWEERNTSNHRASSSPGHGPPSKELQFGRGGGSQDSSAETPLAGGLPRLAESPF

Binder | EC50 hGLP-1 R [pM], cAMP formation (human GLP-1 receptor) | EC50 hGLUC R [pM], cAMP formation (human glucagon receptor)
[Ala(4-thiazolyl)]SQGTFTSD[Chg]SKQ[Nle]ESRRAQEFIEWLLATGPESGAPPPS-OH (N-terminus assumed; SMILES CCCC[C@H](NC(=O)[C@H](CCC(N)=O)NC(=O)[C@H](CCCCN)NC(=O)[C@H](CO)NC(=O)[C@@H](NC(=O)[C@H](CC(=O)O)NC(=O)[C@H](CO)NC(=O)[C@@H](NC(=O)[C@H](Cc1ccccc1)NC(=O)[C@@H](NC(=O)CNC(=O)[C@H](CCC(N)=O)NC(=O)[C@H](CO)NC(=O)[C@@H](N)Cc1cscn1)[C@@H](C)O)[C@@H](C)O)C1CCCCC1)C(=O)N[C@@H](CCC(=O)O)C(=O)N[C@@H](CO)C(=O)N[C@@H](CCCNC(=N)N)C(=O)N[C@@H](CCCNC(=N)N)C(=O)N[C@@H](C)C(=O)N[C@@H](CCC(N)=O)C(=O)N[C@@H](CCC(=O)O)C(=O)N[C@@H](Cc1ccccc1)C(=O)N[C@H](C(=O)N[C@@H](CCC(=O)O)C(=O)N[C@@H](Cc1c[nH]c2ccccc12)C(=O)N[C@@H](CC(C)C)C(=O)N[C@@H](CC(C)C)C(=O)N[C@@H](C)C(=O)N[C@H](C(=O)NCC(=O)N1CCC[C@H]1C(=O)N[C@@H](CCC(=O)O)C(=O)N[C@@H](CO)C(=O)NCC(=O)N[C@@H](C)C(=O)N1CCC[C@H]1C(=O)N1CCC[C@H]1C(=O)N1CCC[C@H]1C(=O)N[C@@H](CO)C(=O)O)[C@@H](C)O)[C@@H](C)CC) [SEQ ID NO: 24] | 8310 pM | 0.7 pM
[Ala(4-thiazolyl)]SQGTFTSD[1Nal]SKQLESRRAQDFIEWLLATGPESGAPPPS-OH (N-terminus assumed; SMILES CC[C@H](C)[C@H](NC(=O)[C@H](Cc1ccccc1)NC(=O)[C@H](CC(=O)O)NC(=O)[C@H](CCC(N)=O)NC(=O)[C@H](C)NC(=O)[C@H](CCCNC(=N)N)NC(=O)[C@H](CCCNC(=N)N)NC(=O)[C@H](CO)NC(=O)[C@H](CCC(=O)O)NC(=O)[C@H](CC(C)C)NC(=O)[C@H](CCC(N)=O)NC(=O)[C@H](CCCCN)NC(=O)[C@H](CO)NC(=O)[C@H](Cc1cccc2ccccc12)NC(=O)[C@H](CC(=O)O)NC(=O)[C@H](CO)NC(=O)[C@@H](NC(=O)[C@H](Cc1ccccc1)NC(=O)[C@@H](NC(=O)CNC(=O)[C@H](CCC(N)=O)NC(=O)[C@H](CO)NC(=O)[C@@H](N)Cc1cscn1)[C@@H](C)O)[C@@H](C)O)C(=O)N[C@@H](CCC(=O)O)C(=O)N[C@@H](Cc1c[nH]c2ccccc12)C(=O)N[C@@H](CC(C)C)C(=O)N[C@@H](CC(C)C)C(=O)N[C@@H](C)C(=O)N[C@H](C(=O)NCC(=O)N1CCC[C@H]1C(=O)N[C@@H](CCC(=O)O)C(=O)N[C@@H](CO)C(=O)NCC(=O)N[C@@H](C)C(=O)N1CCC[C@H]1C(=O)N1CCC[C@H]1C(=O)N1CCC[C@H]1C(=O)N[C@@H](CO)C(=O)O)[C@@H](C)O) [SEQ ID NO: 22] | 8570 pM | 1 pM
[Ala(4-thiazolyl)]SQGTFTSD[1Nal]SKQ[Nle]ESRRAQDFIEWLLATGPESGAPPPS-OH (N-terminus assumed; SMILES CCCC[C@H](NC(=O)[C@H](CCC(N)=O)NC(=O)[C@H](CCCCN)NC(=O)[C@H](CO)NC(=O)[C@H](Cc1cccc2ccccc12)NC(=O)[C@H](CC(=O)O)NC(=O)[C@H](CO)NC(=O)[C@@H](NC(=O)[C@H](Cc1ccccc1)NC(=O)[C@@H](NC(=O)CNC(=O)[C@H](CCC(N)=O)NC(=O)[C@H](CO)NC(=O)[C@@H](N)Cc1cscn1)[C@@H](C)O)[C@@H](C)O)C(=O)N[C@@H](CCC(=O)O)C(=O)N[C@@H](CO)C(=O)N[C@@H](CCCNC(=N)N)C(=O)N[C@@H](CCCNC(=N)N)C(=O)N[C@@H](C)C(=O)N[C@@H](CCC(N)=O)C(=O)N[C@@H](CC(=O)O)C(=O)N[C@@H](Cc1ccccc1)C(=O)N[C@H](C(=O)N[C@@H](CCC(=O)O)C(=O)N[C@@H](Cc1c[nH]c2ccccc12)C(=O)N[C@@H](CC(C)C)C(=O)N[C@@H](CC(C)C)C(=O)N[C@@H](C)C(=O)N[C@H](C(=O)NCC(=O)N1CCC[C@H]1C(=O)N[C@@H](CCC(=O)O)C(=O)N[C@@H](CO)C(=O)NCC(=O)N[C@@H](C)C(=O)N1CCC[C@H]1C(=O)N1CCC[C@H]1C(=O)N1CCC[C@H]1C(=O)N[C@@H](CO)C(=O)O)[C@@H](C)O)[C@@H](C)CC) [SEQ ID NO: 19] | 6640 pM | 0.7 pM
[Ala(4-thiazolyl)]SQGTFTSD[Chg]SKQ[Nle]ESRRAQDFIEWLLATGPESGAPPPS-OH (N-terminus assumed; SMILES CCCC[C@H](NC(=O)[C@H](CCC(N)=O)NC(=O)[C@H](CCCCN)NC(=O)[C@H](CO)NC(=O)[C@@H](NC(=O)[C@H](CC(=O)O)NC(=O)[C@H](CO)NC(=O)[C@@H](NC(=O)[C@H](Cc1ccccc1)NC(=O)[C@@H](NC(=O)CNC(=O)[C@H](CCC(N)=O)NC(=O)[C@H](CO)NC(=O)[C@@H](N)Cc1cscn1)[C@@H](C)O)[C@@H](C)O)C1CCCCC1)C(=O)N[C@@H](CCC(=O)O)C(=O)N[C@@H](CO)C(=O)N[C@@H](CCCNC(=N)N)C(=O)N[C@@H](CCCNC(=N)N)C(=O)N[C@@H](C)C(=O)N[C@@H](CCC(N)=O)C(=O)N[C@@H](CC(=O)O)C(=O)N[C@@H](Cc1ccccc1)C(=O)N[C@H](C(=O)N[C@@H](CCC(=O)O)C(=O)N[C@@H](Cc1c[nH]c2ccccc12)C(=O)N[C@@H](CC(C)C)C(=O)N[C@@H](CC(C)C)C(=O)N[C@@H](C)C(=O)N[C@H](C(=O)NCC(=O)N1CCC[C@H]1C(=O)N[C@@H](CCC(=O)O)C(=O)N[C@@H](CO)C(=O)NCC(=O)N[C@@H](C)C(=O)N1CCC[C@H]1C(=O)N1CCC[C@H]1C(=O)N1CCC[C@H]1C(=O)N[C@@H](CO)C(=O)O)[C@@H](C)O)[C@@H](C)CC) [SEQ ID NO: 20] | 38900 pM | 3.8 pM
[Ala(4-thiazolyl)]SQGTFTSD[Chg]SKQLESRRAQDFIEWLLATGPESGAPPPS-OH (N-terminus assumed; SMILES CC[C@H](C)[C@H](NC(=O)[C@H](Cc1ccccc1)NC(=O)[C@H](CC(=O)O)NC(=O)[C@H](CCC(N)=O)NC(=O)[C@H](C)NC(=O)[C@H](CCCNC(=N)N)NC(=O)[C@H](CCCNC(=N)N)NC(=O)[C@H](CO)NC(=O)[C@H](CCC(=O)O)NC(=O)[C@H](CC(C)C)NC(=O)[C@H](CCC(N)=O)NC(=O)[C@H](CCCCN)NC(=O)[C@H](CO)NC(=O)[C@@H](NC(=O)[C@H](CC(=O)O)NC(=O)[C@H](CO)NC(=O)[C@@H](NC(=O)[C@H](Cc1ccccc1)NC(=O)[C@@H](NC(=O)CNC(=O)[C@H](CCC(N)=O)NC(=O)[C@H](CO)NC(=O)[C@@H](N)Cc1cscn1)[C@@H](C)O)[C@@H](C)O)C1CCCCC1)C(=O)N[C@@H](CCC(=O)O)C(=O)N[C@@H](Cc1c[nH]c2ccccc12)C(=O)N[C@@H](CC(C)C)C(=O)N[C@@H](CC(C)C)C(=O)N[C@@H](C)C(=O)N[C@H](C(=O)NCC(=O)N1CCC[C@H]1C(=O)N[C@@H](CCC(=O)O)C(=O)N[C@@H](CO)C(=O)NCC(=O)N[C@@H](C)C(=O)N1CCC[C@H]1C(=O)N1CCC[C@H]1C(=O)N1CCC[C@H]1C(=O)N[C@@H](CO)C(=O)O)[C@@H](C)O) [SEQ ID NO: 23] | 50700 pM | 3.5 pM
[Ala(4-thiazolyl)]SQGTFTSD[Phe(2-F)]SKQ[Nle]ESRRAQDFIEWLLATGPESGAPPPS-OH (N-terminus assumed; SMILES CCCC[C@H](NC(=O)[C@H](CCC(N)=O)NC(=O)[C@H](CCCCN)NC(=O)[C@H](CO)NC(=O)[C@H](Cc1ccccc1F)NC(=O)[C@H](CC(=O)O)NC(=O)[C@H](CO)NC(=O)[C@@H](NC(=O)[C@H](Cc1ccccc1)NC(=O)[C@@H](NC(=O)CNC(=O)[C@H](CCC(N)=O)NC(=O)[C@H](CO)NC(=O)[C@@H](N)Cc1cscn1)[C@@H](C)O)[C@@H](C)O)C(=O)N[C@@H](CCC(=O)O)C(=O)N[C@@H](CO)C(=O)N[C@@H](CCCNC(=N)N)C(=O)N[C@@H](CCCNC(=N)N)C(=O)N[C@@H](C)C(=O)N[C@@H](CCC(N)=O)C(=O)N[C@@H](CC(=O)O)C(=O)N[C@@H](Cc1ccccc1)C(=O)N[C@H](C(=O)N[C@@H](CCC(=O)O)C(=O)N[C@@H](Cc1c[nH]c2ccccc12)C(=O)N[C@@H](CC(C)C)C(=O)N[C@@H](CC(C)C)C(=O)N[C@@H](C)C(=O)N[C@H](C(=O)NCC(=O)N1CCC[C@H]1C(=O)N[C@@H](CCC(=O)O)C(=O)N[C@@H](CO)C(=O)NCC(=O)N[C@@H](C)C(=O)N1CCC[C@H]1C(=O)N1CCC[C@H]1C(=O)N1CCC[C@H]1C(=O)N[C@@H](CO)C(=O)O)[C@@H](C)O)[C@@H](C)CC) [SEQ ID NO: 18] | 25800 pM | 3.1 pM
[Ala(4-thiazolyl)]SQGTFTSD[Phe(2-F)]SKQLESRRAQDFIEWLLATGPESGAPPPS-OH (N-terminus assumed; SMILES CC[C@H](C)[C@H](NC(=O)[C@H](Cc1ccccc1)NC(=O)[C@H](CC(=O)O)NC(=O)[C@H](CCC(N)=O)NC(=O)[C@H](C)NC(=O)[C@H](CCCNC(=N)N)NC(=O)[C@H](CCCNC(=N)N)NC(=O)[C@H](CO)NC(=O)[C@H](CCC(=O)O)NC(=O)[C@H](CC(C)C)NC(=O)[C@H](CCC(N)=O)NC(=O)[C@H](CCCCN)NC(=O)[C@H](CO)NC(=O)[C@H](Cc1ccccc1F)NC(=O)[C@H](CC(=O)O)NC(=O)[C@H](CO)NC(=O)[C@@H](NC(=O)[C@H](Cc1ccccc1)NC(=O)[C@@H](NC(=O)CNC(=O)[C@H](CCC(N)=O)NC(=O)[C@H](CO)NC(=O)[C@@H](N)Cc1cscn1)[C@@H](C)O)[C@@H](C)O)C(=O)N[C@@H](CCC(=O)O)C(=O)N[C@@H](Cc1c[nH]c2ccccc12)C(=O)N[C@@H](CC(C)C)C(=O)N[C@@H](CC(C)C)C(=O)N[C@@H](C)C(=O)N[C@H](C(=O)NCC(=O)N1CCC[C@H]1C(=O)N[C@@H](CCC(=O)O)C(=O)N[C@@H](CO)C(=O)NCC(=O)N[C@@H](C)C(=O)N1CCC[C@H]1C(=O)N1CCC[C@H]1C(=O)N1CCC[C@H]1C(=O)N[C@@H](CO)C(=O)O)[C@@H](C)O) [SEQ ID NO: 21] | 49700 pM | 1.4 pM
